Values of other authors, collected in paper PMC2646799.

Molecular target: histone H3 acetyl-K9 peptide (Homo sapiens) (UniProt P68431)

**Q.** For Polybromo-1 BrD3 (from UniProt Q86U86), which Kd is on record?
**A.** Its Kd is 1 µM.
